{"source": "patent US20240034774A1", "about": "(Gilead, published 2024)", "binders": {"B1": {"name": "Antibody A-4 (antibody, human IgG1, kappa)", "heavy": "QVQLLQSGAAVTKPGASVRVSCEASGYNIRDYFIHWWRQAPGQGLQWVGWINPKTGQPNNPRQFQGRVSLTRHASWDFDTFSFYMDLKALRSDDTAVYFCARQRSDYWDFDVWGSGTQVTVSSASTKGPSVFPLAPSSKSTSGGTAALGCLVKDYFPEPVTVSWNSGALTSGVHTFPAVLQSSGLYSLSSVVTVPSSSLGTQTYICNVNHKPSNTKVDKKVEPKSCDKTHTCPPCPAPELLAGPDVFLFPPKPKDTLMISRTPEVTCVVVDVSHEDPEVKFNWYVDGVEVHNAKTKPREEQYNSTYRVVSVLTVLHQDWLNGKEYKCKVSNKALPAPEEKTISKAKGQPREPQVYTLPPSREEMTKNQVSLTCLVKGFYPSDIAVEWESNGQPENNYKTTPPVLDSDGSFFLYSKLTVDKSRWQQGNVFSCSVLHEALHSHYTQKSLSLSPGK", "light": "DIQMTQSPSSLSASVGDTVTITCQANGYLNWYQQRRGKAPKLLIYDGSKLERGVPSRFSGRRWGQEYNLTINNLQPEDIATYFCQVYEFVVPGTRLDLKRTVAAPSVFIFPPSDEQLKSGTASVVCLLNNFYPREAKVQWKVDNALQSGNSQESVTEQDSKDSTYSLSSTLTLSKADYEKHKVYACEVTHQGLSSPVTKSFNRGEC"}, "B2": {"name": "Antibody A-5 (antibody, human IgG1, kappa)", "heavy": "B1 heavy with A242G, A336L", "light": "B1 light"}, "B3": {"name": "Antibody A-6 (antibody, human IgG1, kappa)", "heavy": "B1 heavy with A242G, D245S, F249L, R298P, Y306L, V311I, E338I, P402L", "light": "B1 light"}}, "note": "Substitutions are numbered along the chain they refer to."}
{"molecular_target": "HIV-1 envelope glycoprotein gp120 of viral isolate 92US657 (HIV-1)", "test": "cell-based or functional assay", "units": {"ADCC EC50, NK Donor 1": "µg/mL", "ADCC EC50, NK Donor 2": "µg/mL", "ADCC EC50, NK Donor 3": "µg/mL", "ADCC Emax, NK Donor 1": "%", "ADCC Emax, NK Donor 2": "%", "ADCC Emax, NK Donor 3": "%"}}
{"binder": "B1", "ADCC EC50, NK Donor 1": 0.6, "ADCC EC50, NK Donor 2": 1.21, "ADCC EC50, NK Donor 3": 1.64, "ADCC Emax, NK Donor 1": 52, "ADCC Emax, NK Donor 2": 53, "ADCC Emax, NK Donor 3": 50}
{"binder": "B2", "ADCC EC50, NK Donor 1": 0.57, "ADCC EC50, NK Donor 2": 0.83, "ADCC EC50, NK Donor 3": 0.76, "ADCC Emax, NK Donor 1": 58, "ADCC Emax, NK Donor 2": 61, "ADCC Emax, NK Donor 3": 61}
{"binder": "B3", "ADCC EC50, NK Donor 1": 3.93, "ADCC EC50, NK Donor 2": 1.21, "ADCC EC50, NK Donor 3": 3.21, "ADCC Emax, NK Donor 1": 54, "ADCC Emax, NK Donor 2": 53, "ADCC Emax, NK Donor 3": 52}
{"molecular_target": "HIV-1 envelope glycoprotein gp120 of viral isolate 92US712 (HIV-1)", "test": "cell-based or functional assay", "units": {"ADCC EC50, NK Donor 1": "µg/mL", "ADCC EC50, NK Donor 2": "µg/mL", "ADCC EC50, NK Donor 3": "µg/mL", "ADCC Emax, NK Donor 1": "%", "ADCC Emax, NK Donor 2": "%", "ADCC Emax, NK Donor 3": "%"}}
{"binder": "B1", "ADCC EC50, NK Donor 1": 0.2, "ADCC EC50, NK Donor 2": 0.13, "ADCC EC50, NK Donor 3": 0.4, "ADCC Emax, NK Donor 1": 78, "ADCC Emax, NK Donor 2": 61, "ADCC Emax, NK Donor 3": 64}
{"binder": "B2", "ADCC EC50, NK Donor 1": 0.19, "ADCC EC50, NK Donor 2": 0.08, "ADCC EC50, NK Donor 3": 0.09, "ADCC Emax, NK Donor 1": 79, "ADCC Emax, NK Donor 2": 61, "ADCC Emax, NK Donor 3": 66}
{"binder": "B3", "ADCC EC50, NK Donor 1": 0.27, "ADCC EC50, NK Donor 2": 0.54, "ADCC EC50, NK Donor 3": 0.18, "ADCC Emax, NK Donor 1": 68, "ADCC Emax, NK Donor 2": 54, "ADCC Emax, NK Donor 3": 51}
